# Measurements reported in the DeepSol protein solubility set.
# Assay: soluble on expression in E. coli; label from the status in PepcDB or PDB records
row,Sequence,soluble on expression in E. coli
1,MLEQILLGTYTRRASQGIYKIALDTTQGRLTEATLLLEETSPTYLALSQKGELFSVTSVDGEGGTAAYQPEMDHFNLLNKVTEEGAPPCYVAVDENRQLVYAANYHQGIVHVYRILEDGSLEDADKVIHTEPTGPHENQNNAHVHYTDLTPDQRLVVCDLGTDRVYTYNVSLDGKLSEIAQFVTEPGTGPRHLVFHPTKSLAYLFGELDSTVSVLSYDETDGSFTELQKVSTLPADYDAFNGGAAIRISSDGRFLYASNRGHNSIAVYAVSENGEAIERIQLISTEGDIPRDFDLDPSEDFIVVANQDSDNLTLYRRNQETGLLEMIQKDVAVPECVCVLFVLEHHHHHH,soluble
2,INTVNLINQMKTLAAQAEGIKPDSGLNHASFSSVFQQALNQVNELSQTADSLKTRFEIGDPNVSLGEVMIASQKSNLGFEATLRVRNKLVQAYQDIMNMPV,not soluble
3,MGSDKIHHHHHHMGLFNIFDVAGSGMSAQSLRLNTTASNIANADSVSSSIDKTYRSRHPIFEAEMAKAQSQQQASQGVAVKGIVESDKPLLKEYSPDHPMADGDGFIYKPNVNVMEEMADMISASRSYQMNVQVAEAAKSMLQQTLGMGK,not soluble
4,MSLEKVGTIGVAIPSATHGFMGGLNFHAQDTIKRLQQVYPQLDFVLATAGNAGKMVNDIEDMVATRNISALVVLPFESEPLTSPVQAVKEAGIWVTVVDRGLSVEGIEDLYVAGDNPGFGRVAGEYFAQHLESGKKIVVLRGIPTTLDNERVEAFTAAIEGSGIEVLDMQHGNWNRDDAFNVMQDFLSKYPQIDAVWAADDDMAIGAMEAIAQAGRTEEMWVMGGAGMKEIIRRIADGDPQLPANVTYPPAQISTAIELTALKLVSSTPVSGRFIIGSQLVTPENAEQFYFPDSEGHHHHHH,soluble
5,MVFFTCNACGESVKKIQVEKHVSNCRNCECLSCIDCGKDFWGDDYKSHVKCISEGQKYGGKGYEAK,soluble
6,MLEGAKFNVLAVGNHHNNDNNYYAFTQEFYQKLNEGSNMSMESMQTSNAGGSVSMSVDNSSVGSSDALIGHPGLKPVRHYSLSVGQSVFRPGRVTHALNDDALAQALMDTRYPTEGLTNYDEWTIDLRKLNMGPAFAQGAFGKLYKGTYNGEDVAIKILERPENSPEKAQFMEQQFQQEVSMLANLKHPNIVRFIGACRKPMVWCIVTEYAKGGSVRQFLTRRQNRAVPLKLAVKQALDVARGMAYVHGRNFIHRDLKSDNLLISADKSIKIADFGVARIEVQTEGMTPETGTYRWMAPEMIQHRAYNQKVDVYSFGIVLWELITGLLPFQNMTAVQAAFAVVNRGVRPTVPNDCLPVLSDIMTRCWDANPEVRPCFVEVVKLLEAAETEIMTTARKARFRCCLSQPMTID,not soluble
7,EIKDTYNIGELSPGMTATFEGEVISALPIKEFKRADGSIGKLKSFIVRDETGSIRVTLWDNLTDIDVGRGDYVRVRGYIREGYYGGLECTANYVEILKKGEKIES,soluble
8,MSRIEFIRKEEKKYHDFCYENYKLFEEGSWLYKPVKTVIELLPILDERTSPKVLDLGSGVGRNSIPIAKEIKNKNGKVICVDLLDSALDKLKLYSKEYEVEEVIETMKADIGHYDIAKNEYDLIVAVSTLEHVESENVFEKVIKKMASGTKNEGINCIIVNSEVEEIDISTNEKLDAMMEVNMKTKDMLSKLRQSYNGWEIVNQLVKPLEYKIVRDERDVLLKTNAITFAVKKKLEHHHHHH,not soluble
9,MGSDKIHHHHHHVVYRYGLALVTQPPLVSLEDLGYGHGPGQRLFDGLSLHIHSGECHCICGPTGSGKSSLLALIAGLNERPFAGVLECQSGVQVALVMQDPQVQLLRRTLGAEVAFGLENQGVAADDMPAAVKSALIRVGLELPLDTCIDTLSLGQKYRVMLASQLVLNPRVLLLDEPWAQLDDEGVGQLMVTLARLKADGMALIIAEHHPAAFAGLLDFHWLLDQGRLQPAAAGKASGALRADILCRWNPNGLGGRKCLTLAPCDLVLPTLAQGGRGRSGSKGFLSARFASAAPEGRSLFRLDTPLVLRTGDIRLLLGDNGSGKSTLLKALAGLQDGVKLPVKLDGRIPNTAAGEVALMLQRPSRQLFELTVVEELSFSIRRRGLDEAQVAWVQAFLAIEHLAAVSPHKLSWGQQHLVLLAALVITEPRLLLLDDPFAGLDEQSLMACIKLLNWYLSRGGCCVLACHRDVTGFEQVARWQLKDGLLTEVEASGQALAARDGAQTKPWELAAGGMGR,not soluble
10,MGSDKIHHHHHHMEFSLERDEARLVEIASIQETYGTFLIEHLDEKTAIISGSWDPLRRCAFVNYVGLIVGEAEDLSAFQEGLPAGKFYIRYRDIDGDKPMSEAAIGDMLKARGRVSFRDPDYVVRVVHHGIFYVTKVVYERDKKQFIERKAPRRPFFSPVSMDPKYARFLVNTAHVRENQLLIDPFCGTGGILIEAALMGIRVIGNDVALSMAAGARTNLKHFHVEDFHIYNMDVSDLPVRDVDGIATDMPYGRNSYASEDLEVLYERSFRKFHEMLKPHGYASFVVSDPDLAELARPFFNIVHDVPVYQHRSLTRHFITAMRKD,not soluble
11,MAHHHHHHMGTLEAQTQGPGSMQVKLSQERAKELAENASFIASPGKGILAADESTGTIQKRFDNVGVENTEKNRAEYRSILFTTKGLGKYISGCILFEETLFQQAPNGQNMVDLLRAEGILPGIKVDKGLVTIPNTDEEVSTTGLDGLAERCQKYYNAGARFAKWRAVLSIDVKKNKPSNLSILETAHTLARYAAICQENGLVPIVEPEILADGDHSIEVCAEVTERVLAAVFKALNDHKVLLEGALLKPNMVTQGVDCKDKPAPQTVGFLTSRALRRTVPPALPGVMFLSGGQSESMATRHLNEINKCNKHPWSLSFSYGRALQSSVLKTWNGSMSNAAAAQDVLMKLAQQNSEASLGSLKTDLSDDGESLFEAKYIY,soluble
12,SDDREMDDGRWKASALRVPLQVSSAVIKQEVVTRLAPDPVPLTEGAIGIFLSGTEPESGQEDSGYKVIDNRKYVYSEGHWGPPTANDTIYLVGNDADVCAYYPYKDSYTDKTVIPLQSQDYVETEDIYYALNTMINGFTPAITFDMVHAYSLVELKISRENYFMPCEISKITLKNSNLIKKGTINIAVDGSIHSSETGNYDLTTVTDASPHTLSVGESYVCRVLMIPVPLKIERTDAEGGEFGLSVSLVIDGQQMLVEIPYSELGEFRQGEKYVIGLKIKGTEIVPTVKALEWEDEEVNGGNKYPVE,soluble
13,MSVIIVGGGMAGATLALAISRLSHGALPVHLIEATAPESHAHPGFDGRAIALAAGTCQQLARIGVWQSLADCATAITTVHVSDRGHAGFVTLAAEDYQLAALGQVVELHNVGQRLFALLRKAPGVMLHCPDRVANVARTQSHVEVTLESGEMLTGRVLIAADGTHSALATACGVDWQQEPYEQLAVIANVATSVAHEGRAFERFTQHGPLAMLPMSDGRCSLVWCHPLERREEVLSWSDEKFCRELQSAFGWRLGQITHAGKRSAYPLALTRAARPITHRTVLVGNAAQTLHPIAGQGFNLGMRDVMSLAETLTQAHERGEDIGDYGILCRYQQRRQSDREATIGVTDSLVHLFANRWAPLVVGRNIGLMTMELFTPARDVLAQRTLGWVARLEHHHHHH,soluble
14,MGSDKIHHHHHHMPSLREQQHPLIRQLADCIEAAWHQHLDLSPYHLPDELGYVEGRLEGEKLTIENRCYQTPQFRKMHLELANIGNMLDILHCVMFPRPQYNLPMFGCDLVGGRGQISAAIADLSPIQLERTLPESYTTALAQLPVLNFSQPRELPEWGNIFSDFCIFVRPGSPEEEAMFLSRVREFLDIHCMQAIASHPVSVEQVTQNLAGQHNYCTKQQQNDKTRRVLEKAFGPVWAENYMTTVLFDLPT,not soluble
15,GMQKTAFIWDLDGTLLDSYEAILSGIEETFAQFSIPYDKEKVREFIFKYSVQDLLVRVAEDRNLDVEVLNQVRAQSLAEKNAQVVLMPGAREVLAWADESGIQQFIYTHKGNNAFTILKDLGVESYFTEILTSQSGFVRKPSPEAATYLLDKYQLNSDNTYYIGDRTLDVEFAQNSGIQSINFLESTYEGNHRIQALADISRIFETK,soluble
16,DIQMTQSPSSLSASVGDRVTITCKASQDIKSFLSWYQQKPEKAPKSLIYYATSLADGVPSRFSGSGSGTDYTLTISSLQPEDFATYYCLQHGESPYTFGGGTKVEIKRTVAAPSVFIFPPSDEQLKSGTASVVCLLNNFYPREAKVQWKVDNALQSGNSQESVTEQDSKDSTYSLSSTLTLSKADYEKHKVYACEVTHQGLSSPVTKSFNRGECT,soluble
